According to the supplement of paper PMC7877785:
± gives the uncertainty stated by the source.

Experiment: self-splicing fitness, log relative to wild type (ln ratio); higher = more splicing; Tetrahymena group I intron in knt gene, E. coli kanamycin selection, DiMSum; sequences stand for … in CUCUCU…GGAGGGAAAAGUUAUCAGGCAUGCACCUGGUAGCUAGUCUUUAAACCAAUAGAUUGCAUCGGUUUAAAAGGCAAGACCGUCAAAUUGCGGGAAAGGGGUCAACAGCCGUUCAGUACCAAGUCUCAGGGGAAACUUUGAGAUGGCCUUGCAAAGGGUAUGGUAAUAAGCUGACGGACAUGGUCCUAACCACGCAGCCAAGUCCUAAGUCAACAGAUCUUCUGUUGAUAUGGAUGCAGUUCACAGACUAAAUGUCGGUCGGGGAAGAUGUAUUCUUCUCAUAAGAUAUAGUCGGACCUCUCCUUAAUGGGAGCUAGCGGAUGAAGUGAUGCAACACUGGAGCCGCUGGGAACUAAUUUGUAUGCGAAAGUAUAUUGAUUAGUUUUGGAGUACUCGUGGUCG
Summary of the method: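 Fitness was computed with DiMSum as the error-weighted combination of replicate fold changes, kanamycin versus none, each normalised to wild type. The library randomised all eight intron nucleotides of the P1ex region, with the intron placed in the knt kanamycin-resistance gene on pET-22b(+) in E. coli BL21(DE3). Six replicate transformations were grown overnight at 37°C or 30°C on LB agar with or without 25 μg/mL kanamycin, plus 100 μg/mL carbenicillin, 50 μM IPTG and 0.2% rhamnose. Pooled colonies were amplicon-sequenced on an Illumina HiSeq 2500.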

**Q.** With UCUAAGCAAUAUUACGAUAU as the sequence, how does the “self-splicing fitness (ln)” value (30 °C) read?
**A.** -3.99 ± 0.4

**Q.** And the “self-splicing fitness (ln)” value (37 °C)?
**A.** -2.61 ± 0.34

**Q.** For AUAGAGCAAUAUUACGUGGU, which “self-splicing fitness (ln)” value (30 °C) is on record?
**A.** -2.91 ± 0.19

**Q.** What about the “self-splicing fitness (ln)” value (37 °C) of the same sequence?
**A.** -1.83 ± 0.2

**Q.** With AGUAAGCAAUAUUACGUGCG as the sequence, how does the “self-splicing fitness (ln)” value (30 °C) read?
**A.** -1.27 ± 0.088

**Q.** What about the “self-splicing fitness (ln)” value (37 °C) of the same sequence?
**A.** -0.396 ± 0.097

**Q.** What does the source list for UACGAGCAAUAUUACGCGAG?
**A.** self-splicing fitness (ln) (30 °C): -2.49 ± 0.15; self-splicing fitness (ln) (37 °C): -0.597 ± 0.14

**Q.** With AGAUAGCAAUAUUACGUGUG as the sequence, how does the “self-splicing fitness (ln)” value (30 °C) read?
**A.** -2.48 ± 0.097

**Q.** What about the “self-splicing fitness (ln)” value (37 °C) of the same sequence?
**A.** -0.626 ± 0.098

**Q.** With UCAAAGCAAUAUUACGACCU as the sequence, how does the “self-splicing fitness (ln)” value (30 °C) read?
**A.** -1.84 ± 0.19

**Q.** And the “self-splicing fitness (ln)” value (37 °C)?
**A.** -0.48 ± 0.19

**Q.** Which “self-splicing fitness (ln)” value (30 °C) does the source give for AAUUAGCAAUAUUACGUUUU here?
**A.** -1.98 ± 0.13

**Q.** What about the “self-splicing fitness (ln)” value (37 °C) of the same sequence?
**A.** -1.21 ± 0.14

**Q.** Which results are given for UAGGAGCAAUAUUACGUCUG?
**A.** self-splicing fitness (ln) (30 °C): -0.473 ± 0.13; self-splicing fitness (ln) (37 °C): 0.629 ± 0.15

**Q.** Which results are given for UCGAAGCAAUAUUACGAUAA?
**A.** self-splicing fitness (ln) (30 °C): -2.17 ± 0.13; self-splicing fitness (ln) (37 °C): -1.13 ± 0.13

**Q.** For AAGGAGCAAUAUUACGCUCU, which “self-splicing fitness (ln)” value (30 °C) is on record?
**A.** -3.15 ± 0.18

**Q.** What about the “self-splicing fitness (ln)” value (37 °C) of the same sequence?
**A.** -3.85 ± 0.42

**Q.** Which “self-splicing fitness (ln)” value (30 °C) does the source give for AGAAAGCAAUAUUACGCAUG here?
**A.** -1.66 ± 0.1

**Q.** And the “self-splicing fitness (ln)” value (37 °C)?
**A.** -0.374 ± 0.1

**Q.** Which results are given for GAGUAGCAAUAUUACGCGUC?
**A.** self-splicing fitness (ln) (30 °C): -1.36 ± 0.21; self-splicing fitness (ln) (37 °C): -1.26 ± 0.22

**Q.** For AGAGAGCAAUAUUACGCCAA, which “self-splicing fitness (ln)” value (30 °C) is on record?
**A.** -2.71 ± 0.2

**Q.** And the “self-splicing fitness (ln)” value (37 °C)?
**A.** -3.06 ± 0.43

**Q.** For UAAUAGCAAUAUUACGACGG, which “self-splicing fitness (ln)” value (30 °C) is on record?
**A.** -1.51 ± 0.11

**Q.** What about the “self-splicing fitness (ln)” value (37 °C) of the same sequence?
**A.** -0.463 ± 0.13

**Q.** Which “self-splicing fitness (ln)” value (30 °C) does the source give for UUGUAGCAAUAUUACGACGU here?
**A.** -1.48 ± 0.09

**Q.** What about the “self-splicing fitness (ln)” value (37 °C) of the same sequence?
**A.** -0.671 ± 0.12

**Q.** Which results are given for UACGAGCAAUAUUACGUUCG?
**A.** self-splicing fitness (ln) (30 °C): -3.48 ± 0.25; self-splicing fitness (ln) (37 °C): -2.76 ± 0.25

**Q.** For ACAUAGCAAUAUUACGGGUA, which “self-splicing fitness (ln)” value (30 °C) is on record?
**A.** -2.8 ± 0.19

**Q.** And the “self-splicing fitness (ln)” value (37 °C)?
**A.** -2.35 ± 0.14

**Q.** For CGCUAGCAAUAUUACGUUCG, which “self-splicing fitness (ln)” value (30 °C) is on record?
**A.** -1.46 ± 0.067

**Q.** What about the “self-splicing fitness (ln)” value (37 °C) of the same sequence?
**A.** -0.781 ± 0.089

**Q.** What does the source list for UGAAAGCAAUAUUACGGCAA?
**A.** self-splicing fitness (ln) (30 °C): -0.125 ± 0.078; self-splicing fitness (ln) (37 °C): 0.497 ± 0.1

**Q.** What does the source list for ACUGAGCAAUAUUACGUAGA?
**A.** self-splicing fitness (ln) (30 °C): -3.68 ± 0.17; self-splicing fitness (ln) (37 °C): -2.51 ± 0.23

**Q.** With GUCCAGCAAUAUUACGUGCU as the sequence, how does the “self-splicing fitness (ln)” value (30 °C) read?
**A.** -4.08 ± 0.46

**Q.** And the “self-splicing fitness (ln)” value (37 °C)?
**A.** 0.0205 ± 0.18

**Q.** For GAGCAGCAAUAUUACGUUUU, which “self-splicing fitness (ln)” value (30 °C) is on record?
**A.** -2.63 ± 0.092

**Q.** And the “self-splicing fitness (ln)” value (37 °C)?
**A.** -2.3 ± 0.12

**Q.** Which “self-splicing fitness (ln)” value (30 °C) does the source give for AUCAAGCAAUAUUACGCCGU here?
**A.** -1.19 ± 0.087

**Q.** And the “self-splicing fitness (ln)” value (37 °C)?
**A.** -0.429 ± 0.1

**Q.** Which “self-splicing fitness (ln)” value (30 °C) does the source give for CGUGAGCAAUAUUACGAUCU here?
**A.** -0.613 ± 0.088

**Q.** What about the “self-splicing fitness (ln)” value (37 °C) of the same sequence?
**A.** -0.995 ± 0.14

**Q.** What does the source list for AGACAGCAAUAUUACGGAGA?
**A.** self-splicing fitness (ln) (30 °C): -3.65 ± 0.18; self-splicing fitness (ln) (37 °C): -2.55 ± 0.29

**Q.** Which “self-splicing fitness (ln)” value (30 °C) does the source give for CUCUAGCAAUAUUACGUGCC here?
**A.** -3.23 ± 0.28

**Q.** What about the “self-splicing fitness (ln)” value (37 °C) of the same sequence?
**A.** -3.62 ± 0.39

**Q.** For AAGCAGCAAUAUUACGACUG, which “self-splicing fitness (ln)” value (30 °C) is on record?
**A.** -2.67 ± 0.12

**Q.** What about the “self-splicing fitness (ln)” value (37 °C) of the same sequence?
**A.** -1.8 ± 0.14

**Q.** What does the source list for CUCGAGCAAUAUUACGGUCA?
**A.** self-splicing fitness (ln) (30 °C): -2.89 ± 0.28; self-splicing fitness (ln) (37 °C): -0.817 ± 0.23

**Q.** What does the source list for ACCAAGCAAUAUUACGAGUC?
**A.** self-splicing fitness (ln) (30 °C): -3.65 ± 0.2; self-splicing fitness (ln) (37 °C): -1.25 ± 0.15

**Q.** With CCGAAGCAAUAUUACGUAGC as the sequence, how does the “self-splicing fitness (ln)” value (30 °C) read?
**A.** -3 ± 0.33

**Q.** For GACAAGCAAUAUUACGCACA, which “self-splicing fitness (ln)” value (30 °C) is on record?
**A.** -0.149 ± 0.086

**Q.** And the “self-splicing fitness (ln)” value (37 °C)?
**A.** -0.296 ± 0.11

**Q.** What does the source list for CAACAGCAAUAUUACGGCGU?
**A.** self-splicing fitness (ln) (30 °C): -2.15 ± 0.091; self-splicing fitness (ln) (37 °C): -0.0717 ± 0.092

**Q.** With ACGCAGCAAUAUUACGACUG as the sequence, how does the “self-splicing fitness (ln)” value (30 °C) read?
**A.** -2.72 ± 0.14

**Q.** And the “self-splicing fitness (ln)” value (37 °C)?
**A.** -2.02 ± 0.2

**Q.** For GGCAAGCAAUAUUACGAACA, which “self-splicing fitness (ln)” value (30 °C) is on record?
**A.** -2.07 ± 0.24

**Q.** And the “self-splicing fitness (ln)” value (37 °C)?
**A.** -0.92 ± 0.18

**Q.** Which “self-splicing fitness (ln)” value (30 °C) does the source give for CGAGAGCAAUAUUACGUUAG here?
**A.** -4.23 ± 0.36

**Q.** What about the “self-splicing fitness (ln)” value (37 °C) of the same sequence?
**A.** -2.24 ± 0.29

**Q.** Which “self-splicing fitness (ln)” value (30 °C) does the source give for CACGAGCAAUAUUACGGUAG here?
**A.** -2.41 ± 0.12

**Q.** And the “self-splicing fitness (ln)” value (37 °C)?
**A.** -2.18 ± 0.14

**Q.** For CCAGAGCAAUAUUACGACUG, which “self-splicing fitness (ln)” value (30 °C) is on record?
**A.** -1.05 ± 0.1

**Q.** What about the “self-splicing fitness (ln)” value (37 °C) of the same sequence?
**A.** -0.605 ± 0.15

**Q.** Which results are given for UUGAAGCAAUAUUACGGUAC?
**A.** self-splicing fitness (ln) (30 °C): -2.04 ± 0.22; self-splicing fitness (ln) (37 °C): -2.44 ± 0.31

**Q.** Which “self-splicing fitness (ln)” value (30 °C) does the source give for CACAAGCAAUAUUACGAUAC here?
**A.** -3.58 ± 0.21

**Q.** What about the “self-splicing fitness (ln)” value (37 °C) of the same sequence?
**A.** -2.5 ± 0.29

**Q.** For AGUCAGCAAUAUUACGUAAG, which “self-splicing fitness (ln)” value (30 °C) is on record?
**A.** -1.61 ± 0.1

**Q.** And the “self-splicing fitness (ln)” value (37 °C)?
**A.** -0.51 ± 0.11

**Q.** With GGCCAGCAAUAUUACGAUCG as the sequence, how does the “self-splicing fitness (ln)” value (30 °C) read?
**A.** -3.35 ± 0.3

**Q.** What about the “self-splicing fitness (ln)” value (37 °C) of the same sequence?
**A.** -1.27 ± 0.15

**Q.** For CAAGAGCAAUAUUACGGAUG, which “self-splicing fitness (ln)” value (30 °C) is on record?
**A.** -2.89 ± 0.1

**Q.** And the “self-splicing fitness (ln)” value (37 °C)?
**A.** -2.04 ± 0.12

**Q.** For GUCUAGCAAUAUUACGUCCC, which “self-splicing fitness (ln)” value (30 °C) is on record?
**A.** 0.0985 ± 0.14

**Q.** And the “self-splicing fitness (ln)” value (37 °C)?
**A.** -0.0539 ± 0.14

**Q.** For UUCAAGCAAUAUUACGGGAU, which “self-splicing fitness (ln)” value (30 °C) is on record?
**A.** -3.11 ± 0.13

**Q.** What about the “self-splicing fitness (ln)” value (37 °C) of the same sequence?
**A.** -1.4 ± 0.14

**Q.** What does the source list for AUAAAGCAAUAUUACGCUCC?
**A.** self-splicing fitness (ln) (30 °C): -0.366 ± 0.16; self-splicing fitness (ln) (37 °C): -0.365 ± 0.24

**Q.** With AUUAAGCAAUAUUACGUAAA as the sequence, how does the “self-splicing fitness (ln)” value (30 °C) read?
**A.** -1.29 ± 0.12

**Q.** What about the “self-splicing fitness (ln)” value (37 °C) of the same sequence?
**A.** -1.15 ± 0.14

**Q.** With GCAAAGCAAUAUUACGCUCG as the sequence, how does the “self-splicing fitness (ln)” value (30 °C) read?
**A.** -0.748 ± 0.17

**Q.** What about the “self-splicing fitness (ln)” value (37 °C) of the same sequence?
**A.** -0.86 ± 0.24
